Experimental data as given in patent US20190086422A1.

Key:
[1] = molecular target: Tau protein from human CSF (human) (UniProt P10636); test: IP from human CSF, trypsin digest, MS; Tau peptide 282-290 (SEQ ID NO 82) quantified
[2] = molecular target: Tau protein from human CSF (human) (UniProt P10636); test: IP from human CSF, trypsin digest, MS; Tau peptide 386-395 (SEQ ID NO 85) quantified
[3] = molecular target: Tau protein from human CSF (human) (UniProt P10636); test: IP from human CSF, trypsin digest, MS; Tau peptide 299-316 as printed (SEQ ID NO 83) quantified
[4] = molecular target: Tau protein from human CSF (human) (UniProt P10636); test: IP from human CSF, trypsin digest, MS; Tau peptide 45-67 (SEQ ID NO 71) quantified
[5] = molecular target: Tau protein from human CSF (human) (UniProt P10636); test: IP from human CSF, trypsin digest, MS; Tau peptide 275-280 (SEQ ID NO 81) quantified
[6] = molecular target: Tau protein from human CSF (human) (UniProt P10636); test: IP from human CSF, trypsin digest, MS; Tau peptide 151-155 (SEQ ID NO 74) quantified
[7] = molecular target: Tau protein from human CSF (human) (UniProt P10636); test: IP from human CSF, trypsin digest, MS; Tau peptide 24-44 (SEQ ID NO 70) quantified
[8] = molecular target: Tau protein from human CSF (human) (UniProt P10636); test: IP from human CSF, trypsin digest, MS; Tau peptide 6-23 (SEQ ID NO 69) quantified
[9] = molecular target: Tau protein from human CSF (human) (UniProt P10636); test: IP from human CSF, trypsin digest, MS; Tau peptide 212-224 (SEQ ID NO 79) quantified
[10] = molecular target: Tau protein from human CSF (human) (UniProt P10636); test: IP from human CSF, trypsin digest, MS; Tau peptide 68-87 (SEQ ID NO 72) quantified
[11] = molecular target: Tau protein from human CSF (human) (UniProt P10636); test: IP from human CSF, trypsin digest, MS; Tau peptide 195-209 (SEQ ID NO 77) quantified
[12] = molecular target: Tau protein from human CSF (human) (UniProt P10636); test: IP from human CSF, trypsin digest, MS; Tau peptide 181-190 (SEQ ID NO 76) quantified
[13] = molecular target: Tau protein from human CSF (human) (UniProt P10636); test: IP from human CSF, trypsin digest, MS; Tau peptide 175-180 (SEQ ID NO 75) quantified
[14] = molecular target: Tau protein from human CSF (human) (UniProt P10636); test: IP from human CSF, trypsin digest, MS; Tau peptide 396-406 (SEQ ID NO 86) quantified
[15] = molecular target: Tau protein from human CSF (human) (UniProt P10636); test: IP from human CSF, trypsin digest, MS; Tau peptide 88-126 (SEQ ID NO 73) quantified
[16] = molecular target: Tau protein from human CSF (human) (UniProt P10636); test: IP from human CSF, trypsin digest, MS; Tau peptide 212-221 (SEQ ID NO 78) quantified
[17] = molecular target: Tau protein from human CSF (human) (UniProt P10636); test: IP from human CSF, trypsin digest, MS; Tau peptide 260-267 (SEQ ID NO 80) quantified
[18] = molecular target: Tau protein from human CSF (human) (UniProt P10636); test: IP from human CSF, trypsin digest, MS; Tau peptide 354-369 (SEQ ID NO 84) quantified

UniProt P10636, sequence (P10636 other isoform, or with tags, fused parts or gaps limits assumed): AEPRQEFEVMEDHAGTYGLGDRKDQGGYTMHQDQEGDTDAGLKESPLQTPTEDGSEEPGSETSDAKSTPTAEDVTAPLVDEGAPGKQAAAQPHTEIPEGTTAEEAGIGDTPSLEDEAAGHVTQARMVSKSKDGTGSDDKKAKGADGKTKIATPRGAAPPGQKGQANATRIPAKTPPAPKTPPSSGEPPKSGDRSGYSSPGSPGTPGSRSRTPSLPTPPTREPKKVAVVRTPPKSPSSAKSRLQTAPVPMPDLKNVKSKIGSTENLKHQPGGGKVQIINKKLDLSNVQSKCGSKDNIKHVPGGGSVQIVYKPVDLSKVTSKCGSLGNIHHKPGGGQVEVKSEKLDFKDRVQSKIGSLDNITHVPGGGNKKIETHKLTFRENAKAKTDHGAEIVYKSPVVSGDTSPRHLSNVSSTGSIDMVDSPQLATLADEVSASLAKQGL

| Peptide Intensity (fraction of the highest abundance among the three IP antibodies) [1] | Peptide Intensity (fraction of the highest abundance among the three IP antibodies) [2] | Peptide Intensity (fraction of the highest abundance among the three IP antibodies) [3] | Peptide Intensity (fraction of the highest abundance among the three IP antibodies) [4] | Peptide Intensity (fraction of the highest abundance among the three IP antibodies) [5] | Peptide Intensity (fraction of the highest abundance among the three IP antibodies) [6] | Peptide Intensity (fraction of the highest abundance among the three IP antibodies) [7] | Peptide Intensity (fraction of the highest abundance among the three IP antibodies) [8] | Peptide Intensity (fraction of the highest abundance among the three IP antibodies) [9] | Peptide Intensity (fraction of the highest abundance among the three IP antibodies) [10] | Peptide Intensity (fraction of the highest abundance among the three IP antibodies) [11] | Peptide Intensity (fraction of the highest abundance among the three IP antibodies) [12] | Peptide Intensity (fraction of the highest abundance among the three IP antibodies) [13] | Peptide Intensity (fraction of the highest abundance among the three IP antibodies) [14] | Peptide Intensity (fraction of the highest abundance among the three IP antibodies) [15] | Peptide Intensity (fraction of the highest abundance among the three IP antibodies) [16] | Peptide Intensity (fraction of the highest abundance among the three IP antibodies) [17] | Peptide Intensity (fraction of the highest abundance among the three IP antibodies) [18] | Substance |
| --- | --- | --- | --- | --- | --- | --- | --- | --- | --- | --- | --- | --- | --- | --- | --- | --- | --- | --- |
| 0.04 | 1 | 1 | 1 | 1 | 1 | 0.84 | 0.68 | 0.94 | 1 | 0.8 | 1 | 1 | 0.39 | 1 | 0.86 | 1 | 1 | HJ8.7 (antibody) |
| 1 | 0.68 | 0.82 | 0.92 | 0.31 | 0.87 | 0.15 | 1 | 1 | 0.47 | 1 | 0.46 | 0.99 | 0.42 | 0.59 | 1 | 0.86 | 0.86 | Tau12 (antibody) |
